Reference: PMC2666446 (Journal of molecular biology, 2008)

Columns and labels:
MutS [1] = target: T1, MutS (Escherichia coli, UniProt P23909 1-853); assay: FRET equilibrium titration
T1 sequence: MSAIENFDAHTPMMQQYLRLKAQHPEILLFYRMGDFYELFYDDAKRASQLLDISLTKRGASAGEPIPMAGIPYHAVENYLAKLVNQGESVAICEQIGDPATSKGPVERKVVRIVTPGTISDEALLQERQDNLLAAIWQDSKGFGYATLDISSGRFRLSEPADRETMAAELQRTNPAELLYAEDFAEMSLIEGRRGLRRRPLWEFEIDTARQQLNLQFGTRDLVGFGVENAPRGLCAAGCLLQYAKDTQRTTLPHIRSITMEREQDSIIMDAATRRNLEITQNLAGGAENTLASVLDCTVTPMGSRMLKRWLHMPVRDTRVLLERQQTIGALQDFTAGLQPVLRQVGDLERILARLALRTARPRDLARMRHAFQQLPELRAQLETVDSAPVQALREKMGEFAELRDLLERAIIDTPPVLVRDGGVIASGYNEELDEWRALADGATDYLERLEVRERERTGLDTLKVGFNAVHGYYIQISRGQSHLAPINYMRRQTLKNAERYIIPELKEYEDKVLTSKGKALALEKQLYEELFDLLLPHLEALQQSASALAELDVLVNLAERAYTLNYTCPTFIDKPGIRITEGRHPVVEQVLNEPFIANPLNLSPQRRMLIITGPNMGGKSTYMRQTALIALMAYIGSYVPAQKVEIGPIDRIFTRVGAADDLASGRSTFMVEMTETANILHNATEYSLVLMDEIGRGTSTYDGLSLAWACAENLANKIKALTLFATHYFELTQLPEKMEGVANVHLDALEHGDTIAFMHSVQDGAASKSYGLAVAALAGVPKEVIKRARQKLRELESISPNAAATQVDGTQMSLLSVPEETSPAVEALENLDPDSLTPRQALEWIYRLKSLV

MutS [2] = target: T1, MutS; assay: stopped-flow FRET kinetics
MutS [3] = target: T1, MutS; assay: stopped-flow FRET kinetics; remark: listed apart in the source
MutS [4] = target: T1, MutS; assay: FRET equilibrium titration; remark: listed apart in the source
MutS [5] = target: T1, MutS; assay: FRET equilibrium titration; remark: listed apart in the source
MutS [6] = target: T1, MutS; assay: FRET equilibrium titration; remark: listed apart in the source
MutS [7] = target: T1, MutS; assay: FRET equilibrium titration; remark: listed apart in the source
MutS [8] = target: T1, MutS; assay: stopped-flow FRET kinetics; remark: listed apart in the source
mutS-A842E = target: T2, mutS-A842E (Escherichia coli, UniProt P23909 1-853, A842E); assay: EMSA
T2 sequence: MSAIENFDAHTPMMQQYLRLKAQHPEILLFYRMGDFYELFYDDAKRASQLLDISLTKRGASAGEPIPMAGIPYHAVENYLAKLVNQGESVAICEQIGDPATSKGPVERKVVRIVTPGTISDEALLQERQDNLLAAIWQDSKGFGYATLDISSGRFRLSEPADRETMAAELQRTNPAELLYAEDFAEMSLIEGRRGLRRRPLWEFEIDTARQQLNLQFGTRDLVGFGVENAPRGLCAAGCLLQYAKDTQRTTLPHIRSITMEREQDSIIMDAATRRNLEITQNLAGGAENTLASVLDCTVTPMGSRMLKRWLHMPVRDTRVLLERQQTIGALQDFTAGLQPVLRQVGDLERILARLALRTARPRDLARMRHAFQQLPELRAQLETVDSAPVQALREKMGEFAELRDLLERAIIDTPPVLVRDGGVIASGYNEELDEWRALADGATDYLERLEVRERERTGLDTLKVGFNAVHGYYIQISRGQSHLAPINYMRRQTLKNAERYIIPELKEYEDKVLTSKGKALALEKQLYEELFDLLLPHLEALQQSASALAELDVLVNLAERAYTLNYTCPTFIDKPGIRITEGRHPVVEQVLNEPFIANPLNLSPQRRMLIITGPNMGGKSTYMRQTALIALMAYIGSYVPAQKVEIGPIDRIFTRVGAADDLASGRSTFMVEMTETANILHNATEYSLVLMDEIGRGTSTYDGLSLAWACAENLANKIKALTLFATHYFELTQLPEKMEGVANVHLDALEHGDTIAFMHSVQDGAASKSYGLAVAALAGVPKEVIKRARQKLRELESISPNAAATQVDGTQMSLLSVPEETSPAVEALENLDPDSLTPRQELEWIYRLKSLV

MutS [9] = target: T1, MutS; assay: stopped-flow FRET kinetics; remark: listed apart in the source
MutS [10] = target: T1, MutS; assay: stopped-flow FRET kinetics; remark: listed apart in the source
MutS [11] = target: T1, MutS; assay: stopped-flow FRET kinetics; remark: listed apart in the source
MutS [12] = target: T1, MutS; assay: stopped-flow FRET kinetics; remark: listed apart in the source

Binder	Kd (MutS [1])	Kd (MutS [2])	Kd (MutS [3])	Kd (MutS [4])	Kd (MutS [5])	Kd (MutS [6])	Kd (MutS [7])	Kd (MutS [8])	binding result (mutS-A842E)	Kd (MutS [9])	Kd (MutS [10])	Kd (MutS [11])	Kd (MutS [12])
30-GT (dsDNA) DNA 1: AACTGCCAGGCACCAGTGTCAGCGTCGTAT DNA 2: ATACGACGCTGACACTGGTGCTTGGCAGTT	69 nM	26 nM	91 nM	~176 nM	74 nM								
30-1ΔT (dsDNA) DNA 1: AACTGCCAGGCACCAGTGTCAGCGTCGTAT DNA 2: ATACGACGCTGACACTGGTGCCTTGGCAGTT			91 nM		62 nM	56 nM	123 nM	137 nM	binds	321 nM	50 nM	39 nM	27 nM
